Reference: US20250340854, “ENGINEERED Cas12f PROTEIN” (THE UNIVERSITY OF TOKYO, published 2025)

B1: Cas12f I118R mutant (protein)
chain: MAKNTITKTLKLRIVRPYNSAEVEKIVADEKNNREKIALEKNKDKVKEACSKHLKVAAYCTTQVERNACLFCKARKLDDKFYQKLRGQFPDAVFWQEISEIFRQLQKQAAEIYNQSLRELYYEIFIKGKGIANASSVEHYLSDVCYTRAAELFKNAAIASGLRSKIKSNFRLKELKNMKSGLPTTKSDNFPIPLVKQKGGQYTGFEISNHNSDFIIKIPFGRWQVKKEIDKYRPWEKFDFEQVQKSPKPISLLLSTQRRKRNKGWSKDEGTEAEIKKVMNGDYQTSYIEVKRGSKIGEKSAWMLNLSIDVPKIDKGVDPSIIGGIDVGVKSPLVCAINNAFSRYSISDNDLFHFNKKMFARRRILLKKNRHKRAGHGAKNKLKPITILTEKSERFRKKLIERWACEIADFFIKNKVGTVQMENLESMKRKEDSYFNIRLRGFWPYAEMQNKIEFKLKQYGIEIRKVAPNNTSKTCSKCGHLNNYFNFEYRKKNKFPHFKCEKCNFKENADYNAALNISNPKLKSTKEEP
B2: Cas12f I126R mutant (protein)
chain: MAKNTITKTLKLRIVRPYNSAEVEKIVADEKNNREKIALEKNKDKVKEACSKHLKVAAYCTTQVERNACLFCKARKLDDKFYQKLRGQFPDAVFWQEISEIFRQLQKQAAEIYNQSLIELYYEIFRKGKGIANASSVEHYLSDVCYTRAAELFKNAAIASGLRSKIKSNFRLKELKNMKSGLPTTKSDNFPIPLVKQKGGQYTGFEISNHNSDFIIKIPFGRWQVKKEIDKYRPWEKFDFEQVQKSPKPISLLLSTQRRKRNKGWSKDEGTEAEIKKVMNGDYQTSYIEVKRGSKIGEKSAWMLNLSIDVPKIDKGVDPSIIGGIDVGVKSPLVCAINNAFSRYSISDNDLFHFNKKMFARRRILLKKNRHKRAGHGAKNKLKPITILTEKSERFRKKLIERWACEIADFFIKNKVGTVQMENLESMKRKEDSYFNIRLRGFWPYAEMQNKIEFKLKQYGIEIRKVAPNNTSKTCSKCGHLNNYFNFEYRKKNKFPHFKCEKCNFKENADYNAALNISNPKLKSTKEEP
B3: Cas12f I118R/Y122A/I126R/M178R (RARR) mutant (protein)
chain: MAKNTITKTLKLRIVRPYNSAEVEKIVADEKNNREKIALEKNKDKVKEACSKHLKVAAYCTTQVERNACLFCKARKLDDKFYQKLRGQFPDAVFWQEISEIFRQLQKQAAEIYNQSLRELYAEIFRKGKGIANASSVEHYLSDVCYTRAAELFKNAAIASGLRSKIKSNFRLKELKNRKSGLPTTKSDNFPIPLVKQKGGQYTGFEISNHNSDFIIKIPFGRWQVKKEIDKYRPWEKFDFEQVQKSPKPISLLLSTQRRKRNKGWSKDEGTEAEIKKVMNGDYQTSYIEVKRGSKIGEKSAWMLNLSIDVPKIDKGVDPSIIGGIDVGVKSPLVCAINNAFSRYSISDNDLFHFNKKMFARRRILLKKNRHKRAGHGAKNKLKPITILTEKSERFRKKLIERWACEIADFFIKNKVGTVQMENLESMKRKEDSYFNIRLRGFWPYAEMQNKIEFKLKQYGIEIRKVAPNNTSKTCSKCGHLNNYFNFEYRKKNKFPHFKCEKCNFKENADYNAALNISNPKLKSTKEEP
B4: Cas12f M178R mutant (protein)
chain: MAKNTITKTLKLRIVRPYNSAEVEKIVADEKNNREKIALEKNKDKVKEACSKHLKVAAYCTTQVERNACLFCKARKLDDKFYQKLRGQFPDAVFWQEISEIFRQLQKQAAEIYNQSLIELYYEIFIKGKGIANASSVEHYLSDVCYTRAAELFKNAAIASGLRSKIKSNFRLKELKNRKSGLPTTKSDNFPIPLVKQKGGQYTGFEISNHNSDFIIKIPFGRWQVKKEIDKYRPWEKFDFEQVQKSPKPISLLLSTQRRKRNKGWSKDEGTEAEIKKVMNGDYQTSYIEVKRGSKIGEKSAWMLNLSIDVPKIDKGVDPSIIGGIDVGVKSPLVCAINNAFSRYSISDNDLFHFNKKMFARRRILLKKNRHKRAGHGAKNKLKPITILTEKSERFRKKLIERWACEIADFFIKNKVGTVQMENLESMKRKEDSYFNIRLRGFWPYAEMQNKIEFKLKQYGIEIRKVAPNNTSKTCSKCGHLNNYFNFEYRKKNKFPHFKCEKCNFKENADYNAALNISNPKLKSTKEEP
B5: Cas12f Y122A mutant (protein)
chain: MAKNTITKTLKLRIVRPYNSAEVEKIVADEKNNREKIALEKNKDKVKEACSKHLKVAAYCTTQVERNACLFCKARKLDDKFYQKLRGQFPDAVFWQEISEIFRQLQKQAAEIYNQSLIELYAEIFIKGKGIANASSVEHYLSDVCYTRAAELFKNAAIASGLRSKIKSNFRLKELKNMKSGLPTTKSDNFPIPLVKQKGGQYTGFEISNHNSDFIIKIPFGRWQVKKEIDKYRPWEKFDFEQVQKSPKPISLLLSTQRRKRNKGWSKDEGTEAEIKKVMNGDYQTSYIEVKRGSKIGEKSAWMLNLSIDVPKIDKGVDPSIIGGIDVGVKSPLVCAINNAFSRYSISDNDLFHFNKKMFARRRILLKKNRHKRAGHGAKNKLKPITILTEKSERFRKKLIERWACEIADFFIKNKVGTVQMENLESMKRKEDSYFNIRLRGFWPYAEMQNKIEFKLKQYGIEIRKVAPNNTSKTCSKCGHLNNYFNFEYRKKNKFPHFKCEKCNFKENADYNAALNISNPKLKSTKEEP
B6: WT sgRNA (ssRNA)
RNA: GGUUCACUGAUAAAGUGGAGAACCGCUUCACCAAAAGCUGUCCCUUAGGGGAUUAGAACUUGAGUGAAGGUGGGCUGCUUGCAUCAGCCUAAUGUCGAGAAGUGCUUUCUUCGGAAAGUAACCCUCGAAACAAAUUCAUUUGAAAGAAUGAAGGAAUGCAACGGAAAUUAGGUGCGCUUGGC

What was measured:
Cas12f RARR = target: T1, Cas12f RARR (uncultured archaeon, UniProt A0A482D308 SEQ:1-529, I118R,Y122A,I126R,M178R); assay: size exclusion co-elution; 5 mM MgCl2, 50 mM NaCl, pH 8.0; conditions: tags: N-terminal His6; chain copies: 2 (stated)
T1 sequence: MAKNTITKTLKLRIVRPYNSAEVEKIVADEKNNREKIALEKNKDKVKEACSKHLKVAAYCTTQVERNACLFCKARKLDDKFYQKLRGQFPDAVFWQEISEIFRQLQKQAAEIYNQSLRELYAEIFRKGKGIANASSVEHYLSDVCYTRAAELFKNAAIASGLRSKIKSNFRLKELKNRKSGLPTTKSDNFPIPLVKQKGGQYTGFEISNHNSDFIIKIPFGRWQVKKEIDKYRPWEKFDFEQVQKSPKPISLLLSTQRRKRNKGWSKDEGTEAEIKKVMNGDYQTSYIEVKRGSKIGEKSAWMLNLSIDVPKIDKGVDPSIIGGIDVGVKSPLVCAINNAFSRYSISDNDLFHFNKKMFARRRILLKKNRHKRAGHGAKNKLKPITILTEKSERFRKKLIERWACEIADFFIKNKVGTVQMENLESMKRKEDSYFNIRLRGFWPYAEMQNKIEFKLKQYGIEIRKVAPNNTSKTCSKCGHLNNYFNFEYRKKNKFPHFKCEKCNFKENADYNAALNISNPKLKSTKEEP
Procedure: (§1) The peak fraction was analyzed by SDS-PAGE and Urea PAGE. The WT Cas12f protein and the RARR mutant were each eluted together with sgRNA at the same position.

Cas12f (Cas12f1, Cas14a) = target: T2, Cas12f (Cas12f1, Cas14a) (uncultured archaeon, UniProt A0A482D308 SEQ:1-529); assay: as above; conditions: tags: N-terminal His6; chain copies: 2 (stated)
T2 sequence: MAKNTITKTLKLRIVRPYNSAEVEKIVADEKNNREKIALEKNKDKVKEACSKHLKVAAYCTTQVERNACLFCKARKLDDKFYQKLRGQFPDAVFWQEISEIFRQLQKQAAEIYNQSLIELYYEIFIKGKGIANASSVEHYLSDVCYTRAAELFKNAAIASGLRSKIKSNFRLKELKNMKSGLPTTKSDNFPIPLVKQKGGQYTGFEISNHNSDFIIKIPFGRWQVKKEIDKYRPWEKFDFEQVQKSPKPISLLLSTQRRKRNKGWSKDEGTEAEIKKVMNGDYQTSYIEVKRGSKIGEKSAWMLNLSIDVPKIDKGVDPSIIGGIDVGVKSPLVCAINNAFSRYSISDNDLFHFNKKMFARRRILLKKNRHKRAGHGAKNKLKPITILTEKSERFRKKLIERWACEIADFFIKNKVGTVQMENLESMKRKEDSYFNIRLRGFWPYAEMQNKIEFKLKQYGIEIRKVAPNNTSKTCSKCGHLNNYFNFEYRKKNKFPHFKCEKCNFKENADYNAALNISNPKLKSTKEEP
Procedure: as §1

Binder | in vitro DNA cleavage activity | binding result (Cas12f RARR) | binding result (Cas12f (Cas12f1, Cas14a))
B1 | reduced the DNA cleavage activity | – | –
B2 | reduced the DNA cleavage activity | – | –
B3 | lacked the DNA cleavage activity | – | –
B4 | reduced the DNA cleavage activity | – | –
B5 | reduced the DNA cleavage activity | – | –
B6 | – | binds | binds
